First the molecules themselves.
B1: LINE1-full (parent)
chain: UACGUAGGUGGUUUUCCCCUGAUAGUGCUAAGGGGGCCUGGAAGUUUGGACUGGGCAGAGCUCAACACAGCGUGGCAAAGUGGCUGUGGCUAGACUGCCUCUCUGGAUUCCUCGUCACUCAGCAGGGCAUCUCUGAGAGAAAUGCC

From the RNAGym collection of RNA variant scans (doi:10.7554/elife.90254) come the findings set out here.

In the data set the parent is B1. As to the kind of experiment: self-cleavage, relative activity (ratio to wild type); higher = more cleavage; in vitro, sequencing; the parent is a self-cleaving ribozyme.
Turning to UACGUAGGUGGUUUUCCCCUGAUAGUGCUAAGGGGGCCUGGAAGUUUGGACUGGGCAGAGCUCAACACAGCGUGGCAAAGUGGCUGUGGCGAGACUGCCUCUCUGGAUUCCUCCUCACUCAGCAGGGCAUCUCUGAGAGAAAUGCC [U91G G114C], the self-cleavage amounted to 0.02.

As to UACGUAGGUGGUUUUCCCCUGAUAGUGCUAAGGGGGCCUGGAAGUUUGGACUGGGCAGAGCUCAACACAGCGUGGCAAAGUGGCUGUGGCCAGACUGCCCCUCUGGAUUCCUCGUCACUCAGCAGGGCAUCUCUGAGAGAAAUGCC [U91C U100C], the self-cleavage worked out at 0.48.

With UACGUAGGUGGUUUUCCCCUGAUAGUGCUAAGGGGGCCUGGAAGUUUGGACUGGGCAGAGCUCAACACAGCGUGGCAAAGUGGCUGUGGCCAGACUGCCUCUCUGGACUCCUCGUCACUCAGCAGGGCAUCUCUGAGAGAAAUGCC [U91C U108C], the self-cleavage was 0.62.

Consider UACGUAGGUGGUUUUCCCCUGAUAGUGCUAAGGGGGCCUGGAAGUUUGGACUGGGCAGAGCUCAACACAGCGUGGCAAAGUGGCUGUGGCCAGACUGCCUCCCUGGAUUCCUCGUCACUCAGCAGGGCAUCUCUGAGAGAAAUGCC [U91C U102C], for which the self-cleavage was 0.4.

Consider UACGUAGGUGGUUUUCCCCUGAUAGUGCUAAGGGGGCCUGGAAGUUUGGACUGGGCAGAGCUCAACACAGCGUGGCAAAGUGGCUGUGGCGAGACUGCCUCUCUGGAUUCCUCGUCACUCAGCAGGGCAUCUCUGAGAGAGAUGCC [U91G A141G], for which the self-cleavage is 0.06.

Consider UACGUAGGUGGUUUUCCCCUGAUAGUGCUAAGGGGGCCUGGAAGUUUGGACUGGGCAGAGCUCAACACAGCGUGGCAAAGUGGCUGUGGCCAGACUGCCUCUCUGGAUUCCACGUCACUCAGCAGGGCAUCUCUGAGAGAAAUGCC [U91C U112A], for which the self-cleavage was found to be 0.42.

Regarding UACGUAGGUGGUUUUCCCCUGAUAGUGCUAAGGGGGCCUGGAAGUUUGGACUGGGCAGAGCUCAACACAGCGUGGCAAAGUGGCUGUGGCCAGACUGCCUCUCUGGAUCCCUCGUCACUCAGCAGGGCAUCUCUGAGAGAAAUGCC [U91C U109C], the self-cleavage came out at 0.61.

Consider UACGUAGGUGGUUUUCCCCUGAUAGUGCUAAGGGGGCCUGGAAGUUUGGACUGGGCAGAGCUCAACACAGCGUGGCAAAGUGGCUGUGGCGAGACUGCCUCUCUGGAUUCCUCGUCACCCAGCAGGGCAUCUCUGAGAGAAAUGCC [U91G U119C], for which the self-cleavage was determined as 0.

In the case of UACGUAGGUGGUUUUCCCCUGAUAGUGCUAAGGGGGCCUGGAAGUUUGGACUGGGCAGAGCUCAACACAGCGUGGCAAAGUGGCUGUGGCGAGACUGCCUCUCUGGAUUCCUCGUCACUCGGCAGGGCAUCUCUGAGAGAAAUGCC [U91G A121G], the self-cleavage was 0.33.

As for UACGUAGGUGGUUUUCCCCUGAUAGUGCUAAGGGGGCCUGGAAGUUUGGACUGGGCAGAGCUCAACACAGCGUGGCAAAGUGGCUGUGGCGAGACUGCCUCUCUGGAUUCCUCGUCACUCAGCAGGGCAUCUCUGAGAGAAACGCC [U91G U143C], the self-cleavage is 0.07.

Take UACGUAGGUGGUUUUCCCCUGAUAGUGCUAAGGGGGCCUGGAAGUUUGGACUGGGCAGAGCUCAACACAGCGUGGCAAAGUGGCUGUGGCCAGACUGCCUCUCCGGAUUCCUCGUCACUCAGCAGGGCAUCUCUGAGAGAAAUGCC [U91C U104C]: the self-cleavage stood at 1.15.

For the variant UACGUAGGUGGUUUUCCCCUGAUAGUGCUAAGGGGGCCUGGAAGUUUGGACUGGGCAGAGCUCAACACAGCGUGGCAAAGUGGCUGUGGCCAGACUGCCUCUCAGGAUUCCUCGUCACUCAGCAGGGCAUCUCUGAGAGAAAUGCC [U91C U104A], the self-cleavage was determined as 0.34.

Take UACGUAGGUGGUUUUCCCCUGAUAGUGCUAAGGGGGCCUGGAAGUUUGGACUGGGCAGAGCUCAACACAGCGUGGCAAAGUGGCUGUGGCCAGACUGCCUCUCUGGAUUCCUCGUCACUCAGCAGGGCAUCCCUGAGAGAAAUGCC [U91C U132C]: the self-cleavage was 0.83.

With UACGUAGGUGGUUUUCCCCUGAUAGUGCUAAGGGGGCCUGGAAGUUUGGACUGGGCAGAGCUCAACACAGCGUGGCAAAGUGGCUGUGGCUCGACUGCCUCUCUGGAUUCCUCGUCACUCAGCAGGGCAUCUCUGAGAGAAAUGCC [A92C], the self-cleavage stood at 0.13.

For the variant UACGUAGGUGGUUUUCCCCUGAUAGUGCUAAGGGGGCCUGGAAGUUUGGACUGGGCAGAGCUCAACACAGCGUGGCAAAGUGGCUGUGGCGAGACUGCCUCUCUGGAUUCCUCGUCACUCAGCAGGGCAUCUCUGAGAGAAAUGCU [U91G C146U], the self-cleavage turned out to be 0.1.

On to UACGUAGGUGGUUUUCCCCUGAUAGUGCUAAGGGGGCCUGGAAGUUUGGACUGGGCAGAGCUCAACACAGCGUGGCAAAGUGGCUGUGGCCAGACUGCCUCUCUGGAUUCCUCGUCACUCAGCAGGGCAUCUCUGAGAGAAAGGCC [U91C U143G], for which the self-cleavage amounted to 0.62.

In the case of UACGUAGGUGGUUUUCCCCUGAUAGUGCUAAGGGGGCCUGGAAGUUUGGACUGGGCAGAGCUCAACACAGCGUGGCAAAGUGGCUGUGGCCAGACUGCCUCUCUGGAUUCCUCGUCACUCAGCAGGGCAUCUCUGAGAGAAAAGCC [U91C U143A], the self-cleavage is 0.72.

In the case of UACGUAGGUGGUUUUCCCCUGAUAGUGCUAAGGGGGCCUGGAAGUUUGGACUGGGCAGAGCUCAACACAGCGUGGCAAAGUGGCUGUGGCCAGACUGCCUCUCUGGAUUCCUCGUCACUCAGCAGGGCAUCUCUGAGAGAAACGCC [U91C U143C], the self-cleavage was found to be 0.78.

As to UACGUAGGUGGUUUUCCCCUGAUAGUGCUAAGGGGGCCUGGAAGUUUGGACUGGGCAGAGCUCAACACAGCGUGGCAAAGUGGCUGUGGCCAGACUGCCUCUCUGGAUUCCUCGUCACGCAGCAGGGCAUCUCUGAGAGAAAUGCC [U91C U119G], the self-cleavage stood at 1.53.

For the variant UACGUAGGUGGUUUUCCCCUGAUAGUGCUAAGGGGGCCUGGAAGUUUGGACUGGGCAGAGCUCAACACAGCGUGGCAAAGUGGCUGUGGCCAGACUGCCUCUCUGGAUUCCUCGUCACACAGCAGGGCAUCUCUGAGAGAAAUGCC [U91C U119A], the self-cleavage was found to be 0.48.
